Literature values as cited in paper PMC3236687.

Tests used:
[1] = molecular target: endothelin receptors (IMCD cells) (Rattus norvegicus) (UniProt P26684); assay: radioligand
[2] = molecular target: endothelin receptor (renal papillary membranes) (Sus scrofa) (UniProt P35463); assay: radioligand
UniProt P35463, sequence (P35463 27-443): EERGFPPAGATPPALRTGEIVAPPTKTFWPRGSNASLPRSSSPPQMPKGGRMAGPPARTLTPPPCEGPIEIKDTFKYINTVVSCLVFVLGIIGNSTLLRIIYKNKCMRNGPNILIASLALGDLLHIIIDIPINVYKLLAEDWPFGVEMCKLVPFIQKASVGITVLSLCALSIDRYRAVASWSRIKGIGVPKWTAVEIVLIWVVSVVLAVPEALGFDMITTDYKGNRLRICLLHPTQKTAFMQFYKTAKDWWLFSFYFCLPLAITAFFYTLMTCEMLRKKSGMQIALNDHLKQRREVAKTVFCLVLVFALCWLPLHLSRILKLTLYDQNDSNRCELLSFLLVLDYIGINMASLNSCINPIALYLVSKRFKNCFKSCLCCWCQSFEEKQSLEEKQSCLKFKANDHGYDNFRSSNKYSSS

UniProt P26684, sequence (P26684 21-426, chain 1 of 2): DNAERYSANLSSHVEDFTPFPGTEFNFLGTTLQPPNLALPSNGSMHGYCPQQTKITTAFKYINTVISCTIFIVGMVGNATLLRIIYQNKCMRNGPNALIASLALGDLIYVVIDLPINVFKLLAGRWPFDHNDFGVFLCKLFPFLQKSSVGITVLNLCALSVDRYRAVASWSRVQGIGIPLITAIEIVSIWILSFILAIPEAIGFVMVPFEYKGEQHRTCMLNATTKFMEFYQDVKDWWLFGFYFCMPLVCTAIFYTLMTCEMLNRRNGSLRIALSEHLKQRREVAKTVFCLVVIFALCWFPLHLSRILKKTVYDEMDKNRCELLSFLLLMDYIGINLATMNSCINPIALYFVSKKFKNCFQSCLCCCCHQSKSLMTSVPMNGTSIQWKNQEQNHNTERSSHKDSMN
UniProt P26684, sequence (P21451 27-442, chain 2 of 2, further chain): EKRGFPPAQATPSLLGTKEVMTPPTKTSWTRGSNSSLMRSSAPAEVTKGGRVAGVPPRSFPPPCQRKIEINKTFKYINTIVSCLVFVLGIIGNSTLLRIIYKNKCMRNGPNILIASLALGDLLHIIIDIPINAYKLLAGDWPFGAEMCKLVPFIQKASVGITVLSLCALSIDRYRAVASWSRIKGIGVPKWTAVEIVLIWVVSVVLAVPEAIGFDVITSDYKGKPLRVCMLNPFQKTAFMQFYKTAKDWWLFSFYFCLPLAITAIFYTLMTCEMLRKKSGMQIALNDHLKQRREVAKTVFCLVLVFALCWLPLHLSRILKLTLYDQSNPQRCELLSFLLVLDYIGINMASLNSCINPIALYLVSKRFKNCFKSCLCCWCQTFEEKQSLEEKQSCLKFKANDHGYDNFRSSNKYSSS

ET-1 (from UniProt P05305)
Kd [1]: 0.218 nM | Kd [2]: 0.137 nM
